Holding throughout (conditions): protein: recombinant;recombinant;recombinant; tags: C-terminal TEV-cleavable double-StrepTactin tag (cleaved);;; chain copies: 2;1;1; blunt (annealed; only one strand given)
For series [1], the target named is T1, Cep3 (wild type, core complex);Ctf13;Skp1 (wild type) (Saccharomyces cerevisiae;Saccharomyces …, UniProt P40969;P35203;P52286 1-608;1-478;1-194, ||). In words: competition; EMSA, competitor 0.4-1.2 uM vs 0.1 uM N2; EMSA: complex (final buffer 10 mM HEPES, 300 mM NaCl, 1 mM DTT) mixed with DNA, 200 units lambda phosphatase and 1 mM MnCl2, 30 C 30 min, 0.8% agarose gel in TBE; binding pH not stated. (Mobility shift assays separate free from complexed probe on a gel.)

In series [2] the target is Cep3 (wild type, core complex);Ctf13;Skp1delta (Saccharomyces cerevisiae;Saccharomyces …, UniProt P40969;P35203;P52286 1-608;1-478;1-194, ||del37-64). In words: EMSA; no lambda phosphatase; 1 uM protein, 0.1 uM DNA; EMSA: complex (final buffer 10 mM HEPES, 300 mM NaCl, 1 mM DTT) mixed with DNA, 200 units lambda phosphatase and 1 mM MnCl2, 30 C 30 min, 0.8% agarose gel in TBE; binding pH not stated.

Series [3] concerns the target Cep3 deltaGal4;Ctf13;Skp1 (wild type) (Saccharomyces cerevisiae;Saccharomyces …, UniProt P40969;P35203;P52286 47-608;1-478;1-194, ||). In words: EMSA; lambda phosphatase, 1 mM MnCl2; 0.3-1 uM protein; EMSA: complex (final buffer 10 mM HEPES, 300 mM NaCl, 1 mM DTT) mixed with DNA, 200 units lambda phosphatase and 1 mM MnCl2, 30 C 30 min, 0.8% agarose gel in TBE; binding pH not stated.

Series [4] addresses T1, Cep3 (wild type, core …). In words: EMSA; lambda phosphatase, 1 mM MnCl2; 0.3-1 uM protein, 0.1 uM DNA; EMSA: complex (final buffer 10 mM HEPES, 300 mM NaCl, 1 mM DTT) mixed with DNA, 200 units lambda phosphatase and 1 mM MnCl2, 30 C 30 min, 0.8% agarose gel in TBE; binding pH not stated.
Series [5] deals with T1, Cep3 (wild type, core …). In words: competition; EMSA, competitor 0.4-1.2 uM vs 0.1 uM N2; same effect as CCG mutant; EMSA: complex (final buffer 10 mM HEPES, 300 mM NaCl, 1 mM DTT) mixed with DNA, 200 units lambda phosphatase and 1 mM MnCl2, 30 C 30 min, 0.8% agarose gel in TBE; binding pH not stated.

We go through four molecules from PMC5771398, “Structural basis for assembly of the CBF3 kinetochore complex” (The EMBO Journal, 2017).

Where a chain is given by its changes, count along the chain named.

T1 sequence (P40969 whole entry, chain 1 of 3): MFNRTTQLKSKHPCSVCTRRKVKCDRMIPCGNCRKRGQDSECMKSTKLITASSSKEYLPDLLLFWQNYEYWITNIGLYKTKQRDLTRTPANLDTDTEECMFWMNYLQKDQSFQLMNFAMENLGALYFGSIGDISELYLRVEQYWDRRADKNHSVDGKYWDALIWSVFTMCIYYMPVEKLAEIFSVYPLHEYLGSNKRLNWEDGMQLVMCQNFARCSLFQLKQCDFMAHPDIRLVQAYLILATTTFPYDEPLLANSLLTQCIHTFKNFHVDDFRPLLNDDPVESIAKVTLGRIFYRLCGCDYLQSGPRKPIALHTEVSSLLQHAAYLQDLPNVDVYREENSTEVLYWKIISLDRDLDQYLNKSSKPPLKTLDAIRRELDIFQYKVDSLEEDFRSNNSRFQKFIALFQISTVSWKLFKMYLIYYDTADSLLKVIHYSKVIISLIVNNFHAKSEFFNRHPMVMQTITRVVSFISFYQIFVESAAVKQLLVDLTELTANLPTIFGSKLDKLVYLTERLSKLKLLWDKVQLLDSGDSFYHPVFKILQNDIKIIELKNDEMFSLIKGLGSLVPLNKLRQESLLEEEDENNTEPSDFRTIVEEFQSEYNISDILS
T1 sequence (P35203 whole entry, chain 2 of 3): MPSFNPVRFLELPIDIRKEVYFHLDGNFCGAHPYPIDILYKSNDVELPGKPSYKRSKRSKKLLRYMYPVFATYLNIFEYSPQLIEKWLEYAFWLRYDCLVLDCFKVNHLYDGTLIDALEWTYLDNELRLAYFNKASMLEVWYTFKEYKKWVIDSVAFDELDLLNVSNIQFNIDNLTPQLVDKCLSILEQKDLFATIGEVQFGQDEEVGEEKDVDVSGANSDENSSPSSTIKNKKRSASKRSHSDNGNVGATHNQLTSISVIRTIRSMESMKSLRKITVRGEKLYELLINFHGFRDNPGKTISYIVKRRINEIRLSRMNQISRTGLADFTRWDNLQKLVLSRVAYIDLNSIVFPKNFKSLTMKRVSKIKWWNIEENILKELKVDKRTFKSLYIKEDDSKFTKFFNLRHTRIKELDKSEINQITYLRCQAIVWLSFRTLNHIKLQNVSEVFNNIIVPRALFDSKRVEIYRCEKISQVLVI
T1 sequence (P52286 whole entry, chain 3 of 3): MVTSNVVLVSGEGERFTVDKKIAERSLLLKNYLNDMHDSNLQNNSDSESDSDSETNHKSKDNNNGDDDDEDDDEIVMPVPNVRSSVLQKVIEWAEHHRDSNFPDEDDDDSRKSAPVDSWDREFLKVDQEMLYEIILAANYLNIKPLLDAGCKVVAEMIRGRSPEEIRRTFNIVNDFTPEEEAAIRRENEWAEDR
Sequence of Cep3 (wild type, core complex);Ctf13;Skp1delta (P40969 whole entry, stated change not applied, chain 1 of 3): as the sequence (P40969 whole entry, chain 1 of 3) above
Sequence of Cep3 (wild type, core complex);Ctf13;Skp1delta (P35203 whole entry, stated change not applied, chain 2 of 3): as the sequence (P35203 whole entry, chain 2 of 3) above
Sequence of Cep3 (wild type, core complex);Ctf13;Skp1delta (P52286 other isoform, or with tags, fused parts or gaps ||del37-64 | mutant, chain 3 of 3): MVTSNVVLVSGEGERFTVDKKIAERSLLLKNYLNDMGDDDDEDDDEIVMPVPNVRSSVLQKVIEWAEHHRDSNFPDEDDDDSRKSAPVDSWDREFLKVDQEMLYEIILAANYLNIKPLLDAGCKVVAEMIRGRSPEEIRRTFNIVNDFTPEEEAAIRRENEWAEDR
Sequence of Cep3 deltaGal4;Ctf13;Skp1 (wild type) (P40969 47-608, stated change not applied, chain 1 of 3): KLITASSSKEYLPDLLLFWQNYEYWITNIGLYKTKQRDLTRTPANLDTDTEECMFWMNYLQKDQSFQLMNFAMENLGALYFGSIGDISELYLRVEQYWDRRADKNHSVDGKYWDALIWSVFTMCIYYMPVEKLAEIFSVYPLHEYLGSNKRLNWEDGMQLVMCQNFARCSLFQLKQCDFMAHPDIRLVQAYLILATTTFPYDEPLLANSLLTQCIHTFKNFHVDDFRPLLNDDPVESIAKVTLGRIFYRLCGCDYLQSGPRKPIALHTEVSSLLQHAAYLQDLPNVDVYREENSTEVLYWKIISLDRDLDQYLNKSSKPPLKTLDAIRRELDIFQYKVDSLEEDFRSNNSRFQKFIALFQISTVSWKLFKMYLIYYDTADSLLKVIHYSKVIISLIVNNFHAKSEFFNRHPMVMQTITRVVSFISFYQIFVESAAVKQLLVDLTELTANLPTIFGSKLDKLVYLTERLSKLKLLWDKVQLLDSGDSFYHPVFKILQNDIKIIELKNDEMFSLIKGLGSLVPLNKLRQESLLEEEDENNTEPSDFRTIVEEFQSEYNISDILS
Sequence of Cep3 deltaGal4;Ctf13;Skp1 (wild type) (P35203 whole entry, stated change not applied, chain 2 of 3, the tested form may be a part): as the sequence (P35203 whole entry, chain 2 of 3) above
Sequence of Cep3 deltaGal4;Ctf13;Skp1 (wild type) (P52286 whole entry, stated change not applied, chain 3 of 3, the tested form may be a part): as the sequence (P52286 whole entry, chain 3 of 3) above

B1: 33 bp wild-type CEN3, unlabelled competitor (dsDNA)
DNA 1: AAATATTAGTGTATTTGATTTCCGAAAGTTAAA
DNA 2: TTTAACTTTCGGAAATCAAATACACTAATATTT
With B1, the binding result with Cep3 (wild type, core …) [1] is recorded as “binds”.

B2: 33 bp CCG mutant CEN3 (dsDNA)
DNA 1: B1 DNA 1 with C22G, C23A, G24T
DNA 2: B1 DNA 2 with C10A, G11T, G12C
Turning to B2, the binding result with Cep3 (wild type, core …) [1] is recorded as “no binding”.

B3: 56 bp WT CEN3 (dsDNA)
DNA 1: TATTAGTGTATTTGATTTCCGAAAGTTAAAAAAGAAATAGTAAGAAATATATATTT
DNA 2: AAATATATATTTCTTACTATTTCTTTTTTAACTTTCGGAAATCAAATACACTAATA
In the case of B3, the binding result in the series with Cep3 (wild type, core …) [2] is reported as “binds”; in series [3], “no binding”; in the series with Cep3 (wild type, core …) [4], “binds”.

B4: 33 bp double mutant CEN3 (dsDNA)
DNA 1: AAATATTAGAACATTTGATTTGATAAAGTTAAA
DNA 2: TTTAACTTTATCAAATCAAATGTTCTAATATTT
As to B4, the binding result with Cep3 (wild type, core …) [5] is given as “no binding”.
